This is an account of results in article PMC6699766.

Read-outs that look alike come from different tables or passages of the source.

In assay [1] the target is photosystem I complex of Prochlorococcus marinus ecotype MED4 (Prochlorococcus marinus MED4 (endogenous in thylakoid membranes)). In words: atomic force microscopy.
Assay [2] shares this target. Put plainly: atomic force microscopy. The source holds these as a separate data set.
Assay [3] deals with photosystem I complex of Prochlorococcus marinus ecotype SS120 (Prochlorococcus marinus SS120 (endogenous in thylakoid membranes)). In words: atomic force microscopy.
Assay [4] deals with photosystem I complex of Synechocystis sp. PCC 6803. In words: negative stain TEM.
The target of assay [5] is photosystem I complex of Prochlorococcus marinus ecotype MIT9313 (Prochlorococcus marinus MIT9313 (endogenous in thylakoid membranes)). In words: atomic force microscopy.

As usually defined, the stoichiometry N is a count of units in the complex or per binding partner.

Consider “photosystem I complex of Prochlorococcus marinus ecotype MED4”, for which, in assay [1], the ratio of PSI monomer equivalents in trimeric vs monomeric or dimeric PSI was 5.3 and the stoichiometry N was 2. Also, the stoichiometry N in assay [2] was determined as 3.
“photosystem I complex of Prochlorococcus marinus ecotype SS120” returned a stoichiometry N in assay [3] of 3.
Substance “photosystem I complex of Synechocystis sp. PCC 6803” registered a stoichiometry N in assay [4] of 3.
On to “photosystem I complex of Prochlorococcus marinus ecotype MIT9313”, for which, in assay [5], the ratio of trimeric to non-trimeric PSI worked out at 44.5 and the stoichiometry N turned out to be 3.
